{
  "source": "patent US20250243277A1",
  "about": "(AVACTA LIFE SCIENCES, published 2025)",
  "data": [
    {"target": "T1, human PD-L1-Fc (R&D Systems) (human, UniProt Q9NZQ7 19-239)", "T1 construct": "Bought from R&D Systems; Biotinylated in-house for the phage selection; also called huPD-L1-Fc; human PD-L1-Fc antigen; not shown: Fc part of the bought fusion", "T1 sequence (Q9NZQ7 19-239 limits assumed)": "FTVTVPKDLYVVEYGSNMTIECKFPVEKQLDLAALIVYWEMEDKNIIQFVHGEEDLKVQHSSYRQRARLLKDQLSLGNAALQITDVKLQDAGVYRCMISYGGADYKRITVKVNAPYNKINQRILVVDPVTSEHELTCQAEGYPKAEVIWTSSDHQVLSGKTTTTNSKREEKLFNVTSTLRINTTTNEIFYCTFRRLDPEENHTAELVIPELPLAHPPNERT", "assay": "soluble Affimer ELISA", "values": [
      {"binder": "Clone 206 (designed binder, His-tagged) MIPGGLSEAKPATPEIQEIVDKVKPQLEEKTGETYGKLEAVQYKTQVVRADVNVIWWGTNYYIKVRAGDNKYMHLKVFKSLPVKYKEILLEDLVLTGYQVDKNKDDELTGF", "binding result": "binds"},
      {"binder": "Clone 23 (designed binder, His-tagged) MIPGGLSEAKPATPEIQEIVDKVKPQLEEKTGETYGKLEAVQYKTQVVYWEHHHYGFGTNYYIKVRAGDNKYMHLKVFKSLAWPEIDPPVEDLVLTGYQVDKNKDDELTGF", "binding result": "binds"},
      {"binder": "Clone 227 (designed binder, His-tagged) MIPGGLSEAKPATPEIQEIVDKVKPQLEEKTGETYGKLEAVQYKTQVVYVRWHEYGFGTNYYIKVRAGDNKYMHLKVFKSLSNQLIPQPIEDLVLTGYQVDKNKDDELTGF", "binding result": "binds"},
      {"binder": "Clone 82 (designed binder, His-tagged) MIPGGLSEAKPATPEIQEIVDKVKPQLEEKTGETYGKLEAVQYKTQVVFWQLHRYGFGTNYYIKVRAGDNKYMHLKVFKSLEWNRLSPLWEDLVLTGYQVDKNKDDELTGF", "binding result": "binds"},
      {"binder": "Clone 200 (designed binder, His-tagged) MIPGGLSEAKPATPEIQEIVDKVKPQLEEKTGETYGKLEAVQYKTQVVYGPHHQTYAGTNYYIKVRAGDNKYMHLKVFKSLYALHINRWPEDLVLTGYQVDKNKDDELTGF", "binding result": "binds"},
      {"binder": "Clone 22 (designed binder, His-tagged) MIPGGLSEAKPATPEIQEIVDKVKPQLEEKTGETYGKLEAVQYKTQVVHRLHFPIYYGTNYYIKVRAGDNKYMHLKVFKSLHFTLPTQHPEDLVLTGYQVDKNKDDELTGF", "binding result": "binds"},
      {"binder": "Clone 229 (designed binder, His-tagged) MIPGGLSEAKPATPEIQEIVDKVKPQLEEKTGETYGKLEAVQYKTQVVHSSSKPYIHGTNYYIKVRAGDNKYMHLKVFKSLNWNRPYNDLEDLVLTGYQVDKNKDDELTGF", "binding result": "binds"},
      {"binder": "Clone 216 (designed binder, His-tagged) MIPGGLSEAKPATPEIQEIVDKVKPQLEEKTGETYGKLEAVQYKTQVVFTEVKPFVEGTNYYIKVRAGDNKYMHLKVFKSLSWNAPFPAGEDLVLTGYQVDKNKDDELTGF", "binding result": "binds"},
      {"binder": "Clone 228 (designed binder, His-tagged) MIPGGLSEAKPATPEIQEIVDKVKPQLEEKTGETYGKLEAVQYKTQVVVWTSDDAWQGTNYYIKVRAGDNKYMHLKVFKSLFKFEIYKHTEDLVLTGYQVDKNKDDELTGF", "binding result": "binds"},
      {"binder": "Clone 36 (designed binder, His-tagged) MIPGGLSEAKPATPEIQEIVDKVKPQLEEKTGETYGKLEAVQYKTQVVWSFAQVGWHGTNYYIKVRAGDNKYMHLKVFKSLRRFEHLPFYEDLVLTGYQVDKNKDDELTGF", "binding result": "binds"},
      {"binder": "Clone 204 (designed binder, His-tagged) MIPGGLSEAKPATPEIQEIVDKVKPQLEEKTGETYGKLEAVQYKTQVVSLRPHEQLYGTNYYIKVRAGDNKYMHLKVFKSLHLKLWKIPNEDLVLTGYQVDKNKDDELTGF", "binding result": "binds"},
      {"binder": "Clone 214 (designed binder, His-tagged) MIPGGLSEAEPATPEIQEIVDKVKPQLEEKTGETYGKLEAVQYKTQVVIKIHHGSWEGTNYYIKVRAGDNKYMHLKVFKSLLFWQKQFYREDLVLTGYQVDKNKDDELTGF", "binding result": "binds"},
      {"binder": "Clone 213 (designed binder, His-tagged) MIPGGLSEAKPATPEIQEIVDKVKPQLEEKTGETYGKLEAVQYKTQVVKQHTKEWAPGTNYYIKVRAGDNKYMHLKVFKSLWNHLYHYPFEDLVLTGYQVDKNKDDELTGF", "binding result": "binds"},
      {"binder": "Clone 24 (designed binder, His-tagged) MIPGGLSEAKPATPEIQEIVDKVKPQLEEKTGETYGKLEAVQYKTQVVEEGTPEWAPGTNYYIKVRAGDNKYMHLKVFKSLWSDVLYNDFEDLVLTGYQVDKNKDDELTGF", "binding result": "binds"},
      {"binder": "Clone 225 (designed binder, His-tagged) MIPGGLSEAKPATPEIQEIVDKVKPQLEEKTGETYGKLEAVQYKTQVVDLHTPHYAPGTNYYIKVRAGDNKYMHLKVFKSLWNTLLEFGGEDLVLTGYQVDKNKDDELTGF", "binding result": "binds"},
      {"binder": "Clone 209 (designed binder, His-tagged) MIPGGLSEAKPATPEIQEIVDKVKPQLEEKTGETYGKLEAVQYKTQVVIAKEENHWRGTNYYIKVRAGDNKYMHLKVFKSLHYYQDVLYREDLVLTGYQVDKNKDDELTGF", "binding result": "binds"},
      {"binder": "Clone 220 (designed binder, His-tagged) MIPGGLSEAKPATPEIQEIVDKVKPQLEEKTGETYGKLEAVQYKTQVVNRWNIREFEGTNYYIKVRAGDNKYMHLKVFKSLINVPVTELLEDLVLTGYQVDKNKDDELTGF", "binding result": "binds"},
      {"binder": "Clone 222 (designed binder, His-tagged) MIPGGLSEAEPATPEIQEIVDKVKPQLEEKTGETYGKLEAVQYKTQVVQRDHFPEFPGTNYYIKVRAGDNKYMHLKVFKSLGHELYALYAEDLVLTGYQVDKNKDDELTGF", "binding result": "binds"},
      {"binder": "Clone 20 (designed binder, His-tagged) MIPGGLSEAKPATPEIQEIVDKVKPQLEEKTGETYGKLEAVQYKTQVVANSKWHYAFGTNYYIKVRAGDNKYMHLKVFKSLDNAIYRGPTEDLVLTGYQVDKNKDDELTGF", "binding result": "binds"},
      {"binder": "Clone 212 (designed binder, His-tagged) MIPGGLSEAKPATPEIQEIVDKVKPQLEEKTGETYGKLEAVQYKTQVVYAFITPVTHGTNYYIKVRAGDNKYMHLKVFKSLWLNNFGKNFEDLVLTGYQVDKNKDDELTGF", "binding result": "binds"},
      {"binder": "Clone 211 (designed binder, His-tagged) MIPGGLSEAKPATPEIQEIVDKVKPQLEEKTGETYGKLEAVQYKTQVVTHPEDAYSWGTNYYIKVRAGDNKYMHLKVFKSLLKPGGLLDFEDLVLTGYQVDKNKDDELTGF", "binding result": "binds"},
      {"binder": "Clone 232 (designed binder, His-tagged) MIPGGLSEAKPATPEIQEIVDKVKPQLEEKTGETYGKLEAVQYKTQVVTKHSATFFHGTNYYIKVRAGDNKYMHLKVFKSLIGNGQYWYREDLVLTGYQVDKNKDDELTGF", "binding result": "binds"},
      {"binder": "Clone 226 (designed binder, His-tagged) MIPGGLSEAKPATPEIQEIVDKVKPQLEEKTGETYGKLEAVQYKTQVVYKHDDEYGFGTNYYIKVRAGDNKYMHLKVFKSLKWTNRANKPEDLVLTGYQVDKNKDDELTGF", "binding result": "binds"},
      {"binder": "Clone 34 (designed binder, His-tagged) MIPGGLSEAKPATPEIQEIVDKVKPQLEEKTGETYGKLEAVQYKTQVVTHLNNNAWTGTNYYIKVRAGDNKYMHLKVFKSLFFHNGKIYREDLVLTGYQVDKNKDDELTGF", "binding result": "binds"},
      {"binder": "Clone 203 (designed binder, His-tagged) MIPGGLSEAKPATPEIQEIVDKVKPQLEEKTGETYGKLEAVQYKTQVVYHGPPKEWLGTNYYIKVRAGDNKYMHLKVFKSLFFWKGNGYREDLVLTGYQVDKNKDDELTGF", "binding result": "binds"},
      {"binder": "Clone 218 (designed binder, His-tagged) MIPGGLSEAKPATPEIQEIVDKVKPQLEEKTGETYGKLEAVQYKTQVVWRVYFPDFKGTNYYIKVRAGDNKYMHLKVFKSLDEVDEIPHFEDLVLTGYQVDKNKDDELTGF", "binding result": "binds"},
      {"binder": "Clone 79 (designed binder, His-tagged) MIPGGLSEAKPATPEIQEIVDKVKPQLEEKTGETYGKLEAVQYKTQVVIWHSEWSYTGTNYYIKVRAGDNKYMHLKVFKSLFTRHSEPWEEDLVLTGYQVDKNKDDELTGF", "binding result": "binds"},
      {"binder": "Clone 202 (designed binder, His-tagged) MIPGGLSEAKPATPEIQEIVDKVKPQLEEKTGETYGKLEAVQYKTQVVIRHVIWSYSGTNYYIKVRAGDNKYMHLKVFKSLWERNASLSEEDLVLTGYQVDKNKDDELTGF", "binding result": "binds"},
      {"binder": "Clone 21 (designed binder, His-tagged) MIPGGLSEAKPATPEIQEIVDKVKPQLEEKTGETYGKLEAVQYKTQVVKRPHFLQFSGTNYYIKVRAGDNKYMHLKVFKSLNIGPAKKQLEDLVLTGYQVDKNKDDELTGF", "binding result": "binds"},
      {"binder": "Clone 215 (designed binder, His-tagged) MIPGGLSEAKPATPEIQEIVDKVKPQLEEKTGETYGKLEAVQYKTQVVRRVFFPEFPGTNYYIKVRAGDNKYMHLKVFKSLEQPIEGDLWEDLVLTGYQVDKNKDDELTGF", "binding result": "binds"},
      {"binder": "Clone 231 (designed binder, His-tagged) MIPGGLSEAKPATPEIQEIVDKVKPQLEEKTGETYGKLEAVQYKTQVVARWHWFHHFGTNYYIKVRAGDNKYMHLKVFKSLNPINGQETWEDLVLTGYQVDKNKDDELTGF", "binding result": "binds"},
      {"binder": "Clone 230 (designed binder, His-tagged) MIPGGLSEAKPATPEIQEIVDKVKPQLEEKTGETYGKLEAVQYKTQVVHVSNFIIPHGTNYYIKVRAGDNKYMHLKVFKSLNWEGNDLATEDLVLTGYQVDKNKDDELTGF", "binding result": "binds"},
      {"binder": "Clone 221 (designed binder, His-tagged) MIPGGLSEAKPATPEIQEIVDKVKPQLEEKTGETYGKLEAVQYKTQVVIQDVDWRLWGTNYYIKVRAGDNKYMHLKVFKSLVPSDWSKTIEDLVLTGYQVDKNKDDELTGF", "binding result": "binds"},
      {"binder": "Clone 251 (designed binder, His-tagged) MIPGGLSEAKPATPEIQEIVDKVKPQLEEKTGETYGKLEAVQYKTQVVATDQDWRKWGTNYYIKVRAGDNKYMHLKVFKSLIPLNWQLQEEDLVLTGYQVDKNKDDELTGF", "binding result": "binds"},
      {"binder": "Clone 210 (designed binder, His-tagged) MIPGGLSEAKPATPEIQEIVDKVKPQLEEKTGETYGKLEAVQYKTQVVWEYAGDYLEGTNYYIKVRAGDNKYMHLKVFKSLFHGIWWARVEDLVLTGYQVDKNKDDELTGF", "binding result": "binds"}
    ]}
  ]
}
